{
  "source": "patent US20220228157A1",
  "about": "“GENE EDITING IN DIVERSE BACTERIA” (priority 2019, published 2022)",
  "key": {"E. coli MG1655": {"system": "E. coli MG1655", "assay": "Single-cycle multiplex genome editing with oligo pools, read out by NGS", "type": "cell-based, Escherichia coli", "details": "for Average editing efficiency at all loci: 19 simultaneous edits", "protocol": "CspRecT was then tested at a variety of more complex genome editing tasks. For longer strings of consecutive mismatches, which are lower efficiency events, CspRecT was again about twice as efficient as Redβ. […] To further investigate the performance of CspRecT at complex, highly multiplexed genome editing tasks, a set of 20 oligos spaced evenly around the E. coli genome was designed, each of which incorporates a single-nucleotide synonymous mutation at a non-essential gene. Next, while expressing Redβ, PapRecT, and CspRecT separately from the corresponding pORTMAGE plasmid, a single cycle of genome editing was performed with equimolar pools of 1, 5, 10, 15, and 20 oligos and assayed editing efficiency at each locus by PCR amplification coupled to targeted next generation sequencing (NGS). […] For instance, when making 19 simultaneous edits (one oligo from the pool of 20 could not be read out due to inconsistencies in allelic amplification), CspRecT averaged 5.1% editing efficiency at all loci, whereas Redβ and PapRecT averaged only 0.40% and 0.43%. Importantly, despite keeping total oligo concentration fixed across all pools, aggregate editing efficiency increased as more oligos were present in each pool. For instance, when using CspRecT with a 19-oligo pool, aggregate editing efficiency was nearly 100%, implying that across the total recovered population of E. coli there averaged one edit per cell.\nTo measure single locus editing, a recombineering cycle was run with an oligo that confers a single base pair non-coding mismatch in a non-essential gene. The allele was then amplified by PCR and editing efficiency was measured by NGS as described above. To test multiplex editing, the concentration of oligo was held fixed (10 μM in the final electroporation mixture), but the total number of oligos in the mixture was varied. Pools of oligos to test editing at 5, 10, 15, or 20 alleles simultaneously were designed so as to space the edits relatively evenly around the genome. The 5-oligo pool contained oligo #'s 3,7,11,15,17, the 10-oligo pool added oligo #'s 1,5,9,13,19, the 15-oligo pool added oligo #'s 4,8,12,16,18, and the final 20-oligo pool contained silent mismatch MAGE oligos."}, "E. coli": {"system": "E. coli", "assay": "Allelic recombination frequency, selective vs non-selective plates", "type": "cell-based, Escherichia coli", "details": "RecT alone", "protocol": "Four variants known to enable high genome editing efficiency were selected (Redβ and PapRecT in E. coli, LrpRecT in L. lactis, and MspRecT in M. smegmatis), and tested codon optimized versions of all four in both E. coli (gram-negative), and L. lactis (gram-positive). Genome editing efficiency was measured by introducing oligos encoding known antibiotic resistance mutations, and compared the antibiotic resistant cell counts to the total number of viable cells in the population (FIGS. 17E-17F). […] In L. lactis, LrpRecT was the only functional homolog, and improved oligo incorporation 7,700-fold, while the three other RecT variants were nearly non-functional, improving oligo incorporation less than 7-fold (FIG. 17H). No RecT protein functioned well both in E. coli and L. lactis.\nA single colony of E. coli was grown overnight to saturation. In the morning 30 μL of dense culture was inoculated into 3 mL of fresh media and grown for 1 hour. To induce gene expression of the pARC8 vector for recombineering experiments, L-arabinose was added to a final concentration of 0.2% (w/v) and the cells were grown an additional hour. 1 mL of cells were pelleted at 4° C. by centrifugation at 12,000×g for 2.5 minutes and washed twice with 1 mL of ice-cold dH2O. Cells were resuspended in 50 μL ice-cold dH2O containing DNA and transferred to a pre-chilled 0.1 cm electroporation cuvette.\nElectrocompetent cells were electroporated with 90-mer oligos at: 1 uM for E. coli, 50 μg for L. lactis, and 10 uM for C. crescentus. 70-mer oligos were used at 1 μg for M. smegmatis. All oligos were obtained from IDT and can be found under “Oligonucleotides for genome editing” in materials and methods. For dsDNA experiments L. lactis was electroporated with 1.5 μg purified linear dsDNA. Cells were electroporated using a Bio-Rad gene pulser set to 25 μF, 200 S2, and 1.8 kV for E. coli, 2.0 kV for L. lactis, and 1.5 kV for C. crescentus and to 1000Ω and 2.5 kV for M. smegmatis. Immediately after electroporation, cells were recovered in fresh media for 3 hours for E. coli, 1 hour for L. lactis, overnight for M. smegmatis and overnight for C. crescentus. L. lactis recovery media was supplemented with MgCl2 and CaCl2) at a concentration of 20 mM and 2 mM, respectively. E. coli recovery media was supplemented with carbenicillin. M. smegmatis recovery media was supplemented with hygromycin. C. crescentus recovery media was supplemented with 0.3% xylose and kanamycin. After recovery, the cells were serial diluted and plated on non-selective vs. selective agar plates to obtain approximately 50-500 CFU/plate. Colonies were counted using a custom script in Fiji, and allelic recombination frequency was calculated by dividing the number of colonies on selective plates, with the number of colonies on non-selective plates."}, "L. rhamnosus": {"system": "L. rhamnosus", "type": "cell-based", "details": "L. rhamnosus", "protocol": "Finally, the model for RecT was used to establish recombineering in L. rhamnosus, a well-studied probiotic used to treat a variety of illnesses including diarrhea and bacterial vaginosis. Although the L. rhamnosus SSB and L. lactis SSB only have 47% identity, they share identical SSB C-terminal tail 7 amino acids. It was determined whether LrpRecT (which functions in L. lactis) is portable to L. rhamnosus, while the other RecT proteins would not be functional."}, "[1]": {"system": "90 bp oligos pre-coated with SSB", "assay": "Oligonucleotide annealing and quenching in vitro", "type": "biochemical", "description": "It was first whether two 90 bp oligos could anneal if they were pre-coated with SSB. SSBs was purified from E. coli (gram-negative), where most recombineering work has been performed, and L. lactis (gram-positive), a lactic acid bacterium phylogenetically distantly related to E. coli. […] It was next tested capacity of a phage RecT protein to overcome this SSB-mediated inhibition of annealing. Thus, Redβ, which is not broadly portable, but mediates efficient oligonucleotide annealing in E. coli, was purified. […] These preliminary results gave us an indication that while bacterial SSBs inhibit oligonucleotide annealing in vitro, RecTs overcome the inhibitory effect in an SSB-specific manner.\nFluorescent (tolC-r.null.mut-3′FAM) and quenching (tolC-f.null.mut-5′IBFQ) oligos were ordered from Integrated DNA Technologies. Unless otherwise indicated, 50 nM of each oligo was incubated in 25 mM TRIS-HCl pH 7.4 with 1.0 μM Ec_SSB or Ll_SSB at 30° C. for 30 minutes. 100 μl of each oligo mixture were then combined into a 96-well clear-bottom black assay plate (Costar), incubated a further 60 minutes at 30° C., and annealing was tracked on a Synergy H4 microplate reader (BioTek) with fluorescence excitation set to 495 nm and emission set to 520 nm. After 60 minutes, 20 μl of a solution with or without 25 μM Redβ and containing 100 mM MgCl2 was added to achieve a final reaction concentration of 2.5 μM Redβ and 10 mM MgCl2. The annealing was then tracked over 10 hours in a the Synergy H4 microplate reader with the setting indicated above."}},
  "data": [
    {"molecule": "PapRecT: SSAP from Pseudomonas aeruginosa, SEQ ID NO: 24, UniParc ID: UPI0001E9E6CB (protein, listed as Pseudomonas aeruginosa) MGTALTPLLTKFATRYEMGTTPEEVANTLKQTCFKGQVNDSQMVALLIVADQYKLNPFTKELYAFPDKNNGIVPVVGVDGWARIINENPQFDGMEFSMDQQGTECTCKIYRKDRSHAISATEYMAECKRNTQPWQSHPRRMLRHKAMIQCARLAFGFAGIYDQDEAERIVERDVTPAEQYEDVSEAICLIKDSPTMEDLQAAFSNAWKAYKTKGARDQLTAAKDQRKKELLDAPIDVEFEETGDDRAA", "values": [
      {"measurement": "Average editing efficiency at all loci", "setting": "E. coli MG1655", "value": 0.43, "unit": "%"},
      {"measurement": "Improvement of oligo incorporation", "setting": "E. coli", "value": 2700, "unit": "fold"},
      {"measurement": "Oligonucleotide incorporation", "setting": "L. rhamnosus", "value": "negligible activity"},
      {"measurement": "Annealing kinetics in vitro", "setting": "[1]", "value": "improved annealing kinetics in vitro"}
    ]},
    {"molecule": "Redβ: Redβ SSAP from Enterobacteria phage λ, SEQ ID NO: 474 (protein, Bacteriophage Lambda) MSTALATLAGKLAERVGMDSVDPQELITTLRQTAFKCDASDAQFIALLIVANQYGLNPWTKEIYAFPDKQNGIVPVVGVDGWSRIINENQQFDGMDFEQDNESCTCRIYRKDRNHPICVTEWMDECRREPFKTREGREITGPWQSHPKRMLRHKAMIQCARLAFGFAGIYDKDEAERIVENTAYTAERQPERDITPVNDETMQEINTLLIALDKTWDDDLLPLCSQIFRRDIRASSELTQAEAVKALGFLKQKATEQKVAA", "values": [
      {"measurement": "Average editing efficiency at all loci", "setting": "E. coli MG1655", "value": 0.40, "unit": "%"},
      {"measurement": "Improvement of oligo incorporation", "setting": "E. coli", "value": 1600, "unit": "fold"},
      {"measurement": "Oligonucleotide incorporation", "setting": "L. rhamnosus", "value": "negligible activity"},
      {"measurement": "Ability to overcome SSB-mediated inhibition of annealing", "setting": "[1]", "value": "overcame the inhibitory effect of EcSSB but not L1SSB"}
    ]},
    {"molecule": "CspRecT: RecT SSAP (UniParc ID: UPI0001837D7F) from a phage of Collinsella stercoris (protein, Collinsella stercoris DSM 13279) MNQIVKFTDDSGLAVQVTPDDVRRYICENATEKEVGLFLQLCQTQRLNPFVKDAYLVKYGGAPASMITSYQVFNRRACRDANYDGIKSGVVVLRDGDVVHKRGAACYKKAGEELIGGWAEVRFKDGRETAYAEVALDDYSTGKSNWAKMPGVMIEKCAKAAAWRLAFPDTFQGMYAAEEMDQAQQPEQVRAQAEQPVDLQPIRELFKPYCEHFGITPAEGMTAVCGAVGAEGMHSMTEQQARRARAWMEEEMAAPAVEAEYEVVDEGEVF", "values": [
      {"measurement": "Aggregate editing efficiency", "setting": "E. coli MG1655; 19-oligo pool", "value": "~100", "unit": "%"},
      {"measurement": "Average editing efficiency at all loci", "setting": "E. coli MG1655", "value": 5.1, "unit": "%"}
    ]}
  ]
}
